The target in the series is T1, Eglin C (secreted from E. coli W3110 via the MccV system, positive secretion supernatant).
T1 chain: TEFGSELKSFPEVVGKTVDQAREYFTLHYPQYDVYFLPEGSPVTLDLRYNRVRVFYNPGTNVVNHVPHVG

B1: neutrophil elastase (protein)
chain: IVGGRRARPHAWPFMVSLQLRGGHFCGATLIAPNFVMSAAHCVANVNVRAVRVVLGAHNLSRREPTRQVFAVQRIFENGYDPVNLLNDIVILQLNGSATINANVQVAQLPAQGRRLGNGVQCLAMGWGLLGRNRGIASVLQELNVTVVTSLCRRSNVCTLVRGRQAGVCFGDSGSPLVCNGLIHGIASFVRGGCASGLYPDAFAPVAQFVNWIDSIIQ
For B1, the “neutrophil elastase (NE) activity assay (fluorogenic substrate, RFU over time)” value is on record as “NE activity with Eglin C positive secretion was comparable to positive control, which is NE with purified Eglin C (1.5 µM) while NE activity with Eglin C negative secretion showed a similar level with the sample having only NE”.

These data come from US20250340892.
